# US6835382B2, “Ii peptide therapeutics to enhance antigen presentation” (University of Massachusetts, priority 1996, dated 2004)
# Non-standard residues stand in square brackets, D forms with d. hArg = N=C(N)NCCCC[C@H](N)C(=O)O; Cit = NC(=O)NCCC[C@H](N)C(=O)O; Orn = NCCC[C@H](N)C(=O)O
# Biological target: T1, murine E^d MHC class II allele (Mus musculus, UniProt P01904+P01915)
# T1 sequence (P01904 26-255): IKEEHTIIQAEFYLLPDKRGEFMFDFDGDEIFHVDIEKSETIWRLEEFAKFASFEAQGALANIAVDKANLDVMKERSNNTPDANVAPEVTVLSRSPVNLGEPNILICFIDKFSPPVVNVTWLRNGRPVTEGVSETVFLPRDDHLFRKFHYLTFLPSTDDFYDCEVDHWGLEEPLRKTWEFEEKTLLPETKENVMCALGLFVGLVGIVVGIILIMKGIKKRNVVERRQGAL
# T1 sequence (P01915 27-264 limits assumed): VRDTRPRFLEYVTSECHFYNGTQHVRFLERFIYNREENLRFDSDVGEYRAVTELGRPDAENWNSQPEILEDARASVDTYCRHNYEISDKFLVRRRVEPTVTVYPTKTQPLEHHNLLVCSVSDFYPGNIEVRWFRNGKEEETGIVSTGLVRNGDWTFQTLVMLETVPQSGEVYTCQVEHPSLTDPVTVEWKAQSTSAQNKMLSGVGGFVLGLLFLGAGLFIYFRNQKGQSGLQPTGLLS
# Assay: simultaneous assay, E^d allele (A20 APC, G28.C9 T hybridoma, HEL106-116; HT-2 [3H]TdR readout)
# Assay type: cell-based
# Parameters: The A20 and CH27 B cell lymphoma lines express H-2^d and H-2^k alleles, respectively; endogenous in cells; host or cells: A20 B cell lymphoma (mitomycin C-treated or paraformaldehyde-fixed)
# Outline: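 Read-out is [3H]TdR incorporation into HT-2 indicator cells exposed to supernatant from a 24 h primary culture. That culture combined mitomycin C-treated APC (5×10^6 cells/mL, 0.025 mg/mL mitomycin C, 20 min, 37° C), peptide, effector compound and T hybridoma, all added at once.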
# [1] = Table 13, AE peptide 1 μM (fourth value), supernatant 1:4
# [2] = Table 13, AE peptide 4 μM (third value), supernatant 1:4
# [3] = Table 13, AE peptide 16 μM (second value), supernatant 1:4
# [4] = Table 13, AE peptide 64 μM (first value), supernatant 1:4
# [5] = Table 14, AE peptide 64 μM, supernatant 1:4
# [6] = Table 15, AE peptide 16 μM, supernatant 1:4
# [7] = Table 2, AE peptide 64 μM, 0.05 μM HEL106-116, supernatant 1:2
# [8] = Table 11, AE peptide 64 μM, supernatant 1:8
# [9] = Table 5, AE peptide 64 μM, supernatant 1:4
# [10] = Table 16, AE peptide 4 μM, supernatant 1:8
# [11] = Table 6, AE peptide 64 μM, supernatant 1:4
# [12] = Table 7, AE peptide 64 μM, supernatant 1:4
# [13] = Table 17, AE peptide 4 μM, supernatant 1:4
# [14] = Table 18, AE peptide 64 μM, supernatant 1:4
# [15] = Table 9, AE peptide 64 μM, supernatant 1:4
# [16] = Table 1, AE peptide 16 μM (second value), 0.4 μM HEL106-116, supernatant 1:4
# [17] = Table 1, AE peptide 64 μM (first value), 0.4 μM HEL106-116, supernatant 1:4
# [18] = Table 4, AE109 homolog 64 μM, supernatant 1:2
substance,measurement,setting,value
Ac- (mL) RMKLPK-NH2 [AE174],"Times Baseline Response, E^d",[1],1
same,"Times Baseline Response, E^d",[2],2
same,"Times Baseline Response, E^d",[3],40
same,"Times Baseline Response, E^d",[4],55
same,"Times Baseline Response, E^d",[5],15.9
Ac-ARMKLPKSAK-NH2 [AE120],"Times Baseline Response, E^d","Table 10, AE peptide 16 μM (second value), supernatant 1:2",18.1
same,"Times Baseline Response, E^d","Table 10, AE peptide 64 μM (first value), supernatant 1:2",35.4
same,"Times Baseline Response, E^d",[6],19.4
Ac-ARMKNPK-NH2 [AE345],"Times Baseline Response, E^d",[6],3.7
Ac-ARNKLPK-NH2 [AE344],"Times Baseline Response, E^d",[6],7.7
Ac-ARNKNPF-NH2 [AE347],"Times Baseline Response, E^d",[6],1.0
Ac-ARNKNPK-NH2 [AE346],"Times Baseline Response, E^d",[6],1.2
Ac-DSLRMKLPKSAK-NH2 [AE154],"Times Baseline Response, E^d",[7],15.1
Ac-L r MKLPK-NH2 [AE161],"Times Baseline Response, E^d",[8],4.0
Ac-LDSLRMKLPKSAK-NH2 [AE153],"Times Baseline Response, E^d",[7],8.5
Ac-LQLDSLRMKLPKSAK-NH2 [AE151],"Times Baseline Response, E^d",[7],2.5
Ac-LR (mL) KLPK-NH2 [AE302],"Times Baseline Response, E^d",[5],4.5
Ac-LR (mL) KYPK-NH2 [AE303],"Times Baseline Response, E^d",[5],4.0
Ac-LR (mL) KYPk-NH2 [AE305],"Times Baseline Response, E^d",[5],5.2
Ac-LR (mL) KyPK-NH2 [AE304],"Times Baseline Response, E^d",[5],3.9
Ac-LR (mL) KyPk-NH2 [AE306],"Times Baseline Response, E^d",[5],3.2
Ac-LR HArg KLPK-NH2 [AE197],"Times Baseline Response, E^d",[9],10.7
same,"Times Baseline Response, E^d",[10],16.3
Ac-LR L KLPK-NH2 (Ac-LRLKLPK-NH2; not fully specified; printed as Ac-LR L KLPK-NH2) [AE206],"Times Baseline Response, E^d",[9],11.9
same,"Times Baseline Response, E^d",[5],12.7
same,"Times Baseline Response, E^d",[6],25.5
same,"Times Baseline Response, E^d",[10],15.5
Ac-LR N KLPK-NH2 (Ac-LRNKLPK-NH2) [AE202],"Times Baseline Response, E^d",[9],18.2
same,"Times Baseline Response, E^d",[6],34.4
Ac-LR m KLPK-NH2 [AE162],"Times Baseline Response, E^d",[8],2.2
Ac-LRLK HArg PK-NH2 [AE341],"Times Baseline Response, E^d",[6],38.9
Ac-LRLKWPK-NH2 [AE309],"Times Baseline Response, E^d",[5],12.1
same,"Times Baseline Response, E^d",[6],13.1
same,"Times Baseline Response, E^d",[10],20.0
Ac-LRLKYPK-NH2 [AE301],"Times Baseline Response, E^d",[5],12.5
same,"Times Baseline Response, E^d",[6],30.7
same,"Times Baseline Response, E^d",[10],20.1
Ac-LRLKYPk-NH2 [AE307],"Times Baseline Response, E^d",[5],13.2
Ac-LRLKyPK-NH2 [AE308],"Times Baseline Response, E^d",[5],12.6
Ac-LRM M LPK-NH2 (Ac-LRMMLPK-NH2) [AE220],"Times Baseline Response, E^d",[11],2.8
same,"Times Baseline Response, E^d",[10],12.0
Ac-LRM k LPK-NH2 [AE163],"Times Baseline Response, E^d",[8],2.4
Ac-LRMK (mL) PK-NH2 [AE175],"Times Baseline Response, E^d",[1],1
same,"Times Baseline Response, E^d",[2],6
same,"Times Baseline Response, E^d",[3],36
same,"Times Baseline Response, E^d",[4],61
same,"Times Baseline Response, E^d",[5],15.9
Ac-LRMK Cit PK-NH2 (Ac-LRMK[Cit]PK-NH2; SMILES CSCC[C@H](NC(=O)[C@H](CCCNC(=N)N)NC(=O)[C@H](CC(C)C)NC(C)=O)C(=O)N[C@@H](CCCCN)C(=O)N[C@@H](CCCNC(N)=O)C(=O)N1CCC[C@H]1C(=O)N[C@@H](CCCCN)C(N)=O) [AE226],"Times Baseline Response, E^d",[12],9.0
Ac-LRMK D PK-NH2 (Ac-LRMKDPK-NH2) [AE230],"Times Baseline Response, E^d",[12],0.6
Ac-LRMK E PK-NH2 (Ac-LRMKEPK-NH2) [AE231],"Times Baseline Response, E^d",[12],1.8
Ac-LRMK F PK-NH2 (Ac-LRMKFPK-NH2) [AE234],"Times Baseline Response, E^d",[12],14.2
Ac-LRMK H PK-NH2 (Ac-LRMKHPK-NH2) [AE228],"Times Baseline Response, E^d",[12],8.5
Ac-LRMK HArg PK-NH2 (Ac-LRMK[hArg]PK-NH2; SMILES CSCC[C@H](NC(=O)[C@H](CCCNC(=N)N)NC(=O)[C@H](CC(C)C)NC(C)=O)C(=O)N[C@@H](CCCCN)C(=O)N[C@@H](CCCCNC(=N)N)C(=O)N1CCC[C@H]1C(=O)N[C@@H](CCCCN)C(N)=O) [AE227],"Times Baseline Response, E^d",[12],8.1
same,"Times Baseline Response, E^d",[6],32.3
Ac-LRMK K PK-NH2 (Ac-LRMKKPK-NH2) [AE229],"Times Baseline Response, E^d",[12],13.2
Ac-LRMK M PK-NH2 (Ac-LRMKMPK-NH2) [AE236],"Times Baseline Response, E^d",[12],15.2
Ac-LRMK N PK-NH2 (Ac-LRMKNPK-NH2) [AE232],"Times Baseline Response, E^d",[12],12.5
same,"Times Baseline Response, E^d",[6],24.3
Ac-LRMK Q PK-NH2 (Ac-LRMKQPK-NH2) [AE233],"Times Baseline Response, E^d",[12],11.5
Ac-LRMK Y PK-NH2 (Ac-LRMKYPK-NH2; not fully specified; printed as Ac-LRMK Y PK-NH2) [AE235],"Times Baseline Response, E^d",[12],14.6
same,"Times Baseline Response, E^d",[5],12.5
same,"Times Baseline Response, E^d",[6],29.4
same,"Times Baseline Response, E^d",[10],14.3
same,"Times Baseline Response, E^d",[13],51
same,"Times Baseline Response, E^d",[14],12.5
Ac-LRMK l PK-NH2 [AE164],"Times Baseline Response, E^d",[8],17.7
same,"Times Baseline Response, E^d",[5],12.9
Ac-LRMKL p K-NH2 [AE165],"Times Baseline Response, E^d",[8],26.6
Ac-LRMKLP F-NH2 (Ac-LRMKLPF-NH2) [AE248],"Times Baseline Response, E^d",[15],17.2
same,"Times Baseline Response, E^d",[6],34.7
Ac-LRMKLP N-NH2 (Ac-LRMKLPN-NH2) [AE246],"Times Baseline Response, E^d",[15],7.3
same,"Times Baseline Response, E^d",[10],21.8
Ac-LRMKLP k-NH2 [AE166],"Times Baseline Response, E^d",[8],26.4
same,"Times Baseline Response, E^d",[5],14.7
Ac-LRMKLPK-NH2 [AE114],"Times Baseline Response, E^d",[16],26.0
same,"Times Baseline Response, E^d",[17],39.8
same,"Times Baseline Response, Ed","Table 3, AE peptide 64 μM, supernatant 1:4",10.0
same,"Times Baseline Response, E^d",[9],10.0
same,"Times Baseline Response, E^d",[11],10.6
same,"Times Baseline Response, E^d",[12],10.6
same,"Times Baseline Response, E^d",[15],7.7
same,"Times Baseline Response, E^d",[8],24.1
same,"Times Baseline Response, E^d","Table 12, AE peptide 1 μM (fourth value), supernatant 1:2",5
same,"Times Baseline Response, E^d","Table 12, AE peptide 4 μM (third value), supernatant 1:2",62
same,"Times Baseline Response, E^d","Table 12, AE peptide 16 μM (second value), supernatant 1:2",115
same,"Times Baseline Response, E^d","Table 12, AE peptide 64 μM (first value), supernatant 1:2",103
same,"Times Baseline Response, E^d",[1],2
same,"Times Baseline Response, E^d",[2],18
same,"Times Baseline Response, E^d",[3],65
same,"Times Baseline Response, E^d",[4],48
same,"Times Baseline Response, E^d",[5],12.4
same,"Times Baseline Response, E^d",[6],228
same,"Times Baseline Response, E^d",[10],15.7
same,"Times Baseline Response, E^d",[13],47
same,"Times Baseline Response, E^d",[14],12.4
Ac-LRMKLPKPPK-NH2 [AE168],"Times Baseline Response, E^d",[17],"16.7, n.d."
Ac-LRMKLPKPPP-NH2 [AE167],"Times Baseline Response, E^d",[17],"20.1, n.d."
Ac-LRMKLPKSAK-NH2 [AE110],"Times Baseline Response, E^d",[16],27.8
same,"Times Baseline Response, E^d",[17],47.1
same,"Times Baseline Response, E^d",[7],23.8
Ac-LRMKLP[Cit]-NH2 [AE241],"Times Baseline Response, E^d",[15],3.4
same,"Times Baseline Response, E^d",[10],7.1
Ac-LRMK[Orn]PK-NH2 [AE225],"Times Baseline Response, E^d",[12],10.4
Ac-LRNKNPF-NH2 [AE348],"Times Baseline Response, E^d",[6],13.1
Ac-LRNKNPK-NH2 [AE349],"Times Baseline Response, E^d",[6],25.3
Ac-LR[Orn]KLPK-NH2 [AE195],"Times Baseline Response, E^d",[9],12.1
same,"Times Baseline Response, E^d",[6],34.3
Ac-L[Cit]MKNPK-NH2 [AE342],"Times Baseline Response, E^d",[6],2.3
Ac-L[Cit]NKLPK-NH2 [AE343],"Times Baseline Response, E^d",[6],1.2
Ac-NLQLDSLRMKLPKSAK-NH2 [AE150],"Times Baseline Response, E^d",[7],3.2
Ac-QLDSLRMKLPKSAK-NH2 [AE152],"Times Baseline Response, E^d",[7],2.3
Ac-SLRMKLPKSAK-NH2 [AE155],"Times Baseline Response, E^d",[7],23.4
Ac-Y D MKLPKSAK-NH2 [AE135],"Times Baseline Response, E^d",[18],1.2
Ac-Y E MKLPKSAK-NH2 [AE136],"Times Baseline Response, E^d",[18],0.9
Ac-Y F MKLPKSAK-NH2 [AE139],"Times Baseline Response, E^d",[18],0.8
Ac-Y H MKLPKSAK-NH2 [AE133],"Times Baseline Response, E^d",[18],0.9
Ac-Y K MKLPKSAK-NH2 [AE134],"Times Baseline Response, E^d",[18],0.7
same,"Times Baseline Response, E^d",[10],1.2
Ac-Y L MKLPKSAK-NH2 [AE142],"Times Baseline Response, E^d",[18],0.8
Ac-Y M MKLPKSAK-NH2 [AE141],"Times Baseline Response, E^d",[18],1.1
Ac-Y N MKLPKSAK-NH2 [AE137],"Times Baseline Response, E^d",[18],0.8
